Source: patent US20190025332A1 (Novo Nordisk, published 2019)
One block for each binder: values may come before it.

B2: wild type human MIC-1 (ligand)
chain: ARNGDHCPLGPGRCCRLHTVRASLEDLGWADWVLSPREVQVTMCIGACPSQFRAANMHAQIKTSLHRLKPDTVPAPCCVPASYNPMVLIQKTDTGVSLQTYDDLLAKDCHCI
notes: also called wtMIC-1; hMIC-1

Assays:
wild type human MIC-1 = target: B2; assay: SPR; ligand as analyte over immobilised mGFRAL(ECR)-Fab-HPC4
From the text: (§1) For SPR-based binding assay, wtMIC-1 as well as hGDNF, hNRTN, hARTN and hPSPN, at various concentrations were run as flow-through analytes. hGFRAL(ECR)-Fab and mGFRAL(ECR)-Fab were immobilized as ligand. […] FCRL2-Fab-HPC4 (Ctrl.-Fab-HPC4) was used as control. Please see FIG. 5 and Table 4.

hPSPN = target: T1, hPSPN (human, UniProt O60542 61-156, limits assumed); assay: as above
T1 sequence (looked up): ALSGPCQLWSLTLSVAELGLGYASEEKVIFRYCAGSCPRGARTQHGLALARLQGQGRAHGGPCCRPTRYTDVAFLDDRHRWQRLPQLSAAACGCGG
From the text: as §1

hGDNF = target: T2, hGDNF (human, UniProt P39905 78-211); assay: as above
T2 sequence (looked up): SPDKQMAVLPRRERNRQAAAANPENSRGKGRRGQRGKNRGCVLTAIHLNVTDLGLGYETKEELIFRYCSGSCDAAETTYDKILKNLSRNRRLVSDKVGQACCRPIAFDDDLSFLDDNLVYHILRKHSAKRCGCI
From the text: as §1

hNRTN = target: T3, hNRTN (human, UniProt Q99748 96-197); assay: as above
T3 sequence (looked up): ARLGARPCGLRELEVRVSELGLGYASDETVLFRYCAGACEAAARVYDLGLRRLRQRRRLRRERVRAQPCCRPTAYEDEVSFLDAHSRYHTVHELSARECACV
From the text: as §1

hARTN = target: T4, hARTN (human, UniProt Q5T4W7 108-220); assay: as above
T4 sequence (looked up): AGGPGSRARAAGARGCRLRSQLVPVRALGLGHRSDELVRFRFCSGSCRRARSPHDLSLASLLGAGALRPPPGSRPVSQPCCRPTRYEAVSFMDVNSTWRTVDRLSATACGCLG
From the text: as §1

hRET(ECR)-hIgG1.1_Fc [1] = target: T5, hRET(ECR)-hIgG1.1_Fc (human); assay: SPR; analyte 333 nM over immobilised hRet(ECR)-Fc
T5 construct: also called hRET(ECR)-Fc; hRet(ECR)-Fc
Procedure: (§2) hRet and complex of hGFRAL and MIC-1 interactions were assessed by SPR-based binding assay. A Biacore® 4000 (GE Healthcare, Piscataway, N.J., USA) instrument was used. The assays were performed at 25° C. at flow rates of 30 μL/minute in 1× HBS-P running buffer (BR-1006-71, GE Healthcare, Piscataway, N.J., USA). hRet(ECR)-Fc was immobilized through Fc as ligand on the chip. VISTA-Fc was immobilized as negative control ligand. The complex of MIC-1 and hGFRAL was prepared by pre-incubating wtMIC-1 with hGFRAL(ECR)-His. wtMIC-1, hGFRAL(ECR)-His, complex of wtMIC-1 and Ctrl-His, and complex of wtMIC-1 and hGFRAL(ECR)-His at various concentration were run as flow-through analyte.
(§3) Thus, it can be concluded that that hRet binds to hGFRAL in the presence of MIC-1; and Ret, MIC-1 and GFRAL forms a ternary complex.

VISTA-Fc [2] = target: T6, VISTA-Fc; assay: SPR; analyte 333 nM over immobilised VISTA-Fc (Ctrl-Fc)
T6 construct: Negative control ligand immobilised on the chip; also called Ctrl-Fc
Procedure: as §2, §3

VISTA-Fc [3] = target: T6, VISTA-Fc; assay: SPR; analyte 12 nM over immobilised VISTA-Fc (Ctrl-Fc)
Procedure: as §2

hRET(ECR)-hIgG1.1_Fc [4] = target: T5, hRET(ECR)-hIgG1.1_Fc; assay: SPR; analyte 37 nM over immobilised hRet(ECR)-Fc
Procedure: as §2, §3

VISTA-Fc [5] = target: T6, VISTA-Fc; assay: SPR; analyte 111 nM over immobilised VISTA-Fc (Ctrl-Fc)
Procedure: as §2, §3

hRET(ECR)-hIgG1.1_Fc [6] = target: T5, hRET(ECR)-hIgG1.1_Fc; assay: SPR; analyte 1000 nM over immobilised hRet(ECR)-Fc
Procedure: as §2, §3

VISTA-Fc [7] = target: T6, VISTA-Fc; assay: SPR; analyte 1000 nM over immobilised VISTA-Fc (Ctrl-Fc)
Procedure: as §2, §3

VISTA-Fc [8] = target: T6, VISTA-Fc; assay: SPR; analyte 0 nM over immobilised VISTA-Fc (Ctrl-Fc)
Procedure: as §2, §3

[9] = target: T7, full length hGFRAL and full length hRET51 co-expressed on cells (human, UniProt Q6UXV0 19-394; P07949 29-1114); assay: cell-based or functional assay
VISTA-Fc [10] = target: T6, VISTA-Fc; assay: SPR; analyte 37 nM over immobilised VISTA-Fc (Ctrl-Fc)
Procedure: as §2, §3

hRET(ECR)-hIgG1.1_Fc [11] = target: T5, hRET(ECR)-hIgG1.1_Fc; assay: SPR; analyte 111 nM over immobilised hRet(ECR)-Fc
Procedure: as §2, §3

[12] = target: full length hGFRAL and full length hRET43 co-expressed on HEK293 cells (human, UniProt Q6UXV0 19-394; P07949 29-1062); assay: cell-based or functional assay
[13] = target: T7, full length hGFRAL and full length …; assay: cell-based or functional assay; remark: listed apart in the source
[14] = target: full length hGFRAL and full length hRET9 co-expressed on HEK293 cells (human, UniProt Q6UXV0 19-394; P07949 29-1063); assay: cell-based or functional assay
hRET(ECR)-hIgG1.1_Fc [15] = target: T5, hRET(ECR)-hIgG1.1_Fc; assay: SPR; analyte 12 nM over immobilised hRet(ECR)-Fc
Procedure: as §2, §3

hRET(ECR)-hIgG1.1_Fc [16] = target: T5, hRET(ECR)-hIgG1.1_Fc; assay: SPR; analyte 0 nM over immobilised hRet(ECR)-Fc
Procedure: as §2, §3

[17] = target: T7, full length hGFRAL and full length …; assay: binding to BHK21-hGFRAL-IRES-hRET stable cells, median fluorescence intensity

Sequence of full length hGFRAL and full length hRET43 co-expressed on HEK293 cells (P07949 other isoform, or with tags, fused parts or gaps limits assumed): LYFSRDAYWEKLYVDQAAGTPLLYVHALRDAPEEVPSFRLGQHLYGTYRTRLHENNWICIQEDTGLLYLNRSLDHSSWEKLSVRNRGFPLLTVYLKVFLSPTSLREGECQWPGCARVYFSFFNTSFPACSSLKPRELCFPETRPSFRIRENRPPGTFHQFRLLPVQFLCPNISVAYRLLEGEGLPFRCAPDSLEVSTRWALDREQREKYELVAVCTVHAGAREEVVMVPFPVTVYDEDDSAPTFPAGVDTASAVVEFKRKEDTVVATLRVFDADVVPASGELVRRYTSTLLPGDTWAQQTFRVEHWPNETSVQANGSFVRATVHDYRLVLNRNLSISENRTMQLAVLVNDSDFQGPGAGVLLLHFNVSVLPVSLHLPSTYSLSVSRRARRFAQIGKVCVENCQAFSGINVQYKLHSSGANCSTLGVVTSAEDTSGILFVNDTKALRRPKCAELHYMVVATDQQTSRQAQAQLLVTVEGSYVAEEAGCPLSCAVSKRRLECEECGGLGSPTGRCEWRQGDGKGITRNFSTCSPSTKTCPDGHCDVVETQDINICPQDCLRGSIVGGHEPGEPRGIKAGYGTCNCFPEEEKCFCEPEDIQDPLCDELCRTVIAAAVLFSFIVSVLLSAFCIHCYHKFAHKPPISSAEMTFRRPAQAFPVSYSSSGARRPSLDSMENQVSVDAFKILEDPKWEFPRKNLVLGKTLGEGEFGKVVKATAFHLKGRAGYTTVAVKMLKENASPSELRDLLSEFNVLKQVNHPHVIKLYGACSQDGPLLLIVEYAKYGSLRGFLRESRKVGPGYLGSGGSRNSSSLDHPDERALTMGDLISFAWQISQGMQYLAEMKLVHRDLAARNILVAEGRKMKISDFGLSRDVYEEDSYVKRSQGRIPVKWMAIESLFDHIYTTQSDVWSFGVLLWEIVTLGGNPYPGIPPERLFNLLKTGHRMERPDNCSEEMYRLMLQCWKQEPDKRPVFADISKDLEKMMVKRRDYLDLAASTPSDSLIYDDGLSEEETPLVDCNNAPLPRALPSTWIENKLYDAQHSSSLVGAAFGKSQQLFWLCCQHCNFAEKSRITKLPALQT
T7 sequence (P07949 29-1114, one chain of several): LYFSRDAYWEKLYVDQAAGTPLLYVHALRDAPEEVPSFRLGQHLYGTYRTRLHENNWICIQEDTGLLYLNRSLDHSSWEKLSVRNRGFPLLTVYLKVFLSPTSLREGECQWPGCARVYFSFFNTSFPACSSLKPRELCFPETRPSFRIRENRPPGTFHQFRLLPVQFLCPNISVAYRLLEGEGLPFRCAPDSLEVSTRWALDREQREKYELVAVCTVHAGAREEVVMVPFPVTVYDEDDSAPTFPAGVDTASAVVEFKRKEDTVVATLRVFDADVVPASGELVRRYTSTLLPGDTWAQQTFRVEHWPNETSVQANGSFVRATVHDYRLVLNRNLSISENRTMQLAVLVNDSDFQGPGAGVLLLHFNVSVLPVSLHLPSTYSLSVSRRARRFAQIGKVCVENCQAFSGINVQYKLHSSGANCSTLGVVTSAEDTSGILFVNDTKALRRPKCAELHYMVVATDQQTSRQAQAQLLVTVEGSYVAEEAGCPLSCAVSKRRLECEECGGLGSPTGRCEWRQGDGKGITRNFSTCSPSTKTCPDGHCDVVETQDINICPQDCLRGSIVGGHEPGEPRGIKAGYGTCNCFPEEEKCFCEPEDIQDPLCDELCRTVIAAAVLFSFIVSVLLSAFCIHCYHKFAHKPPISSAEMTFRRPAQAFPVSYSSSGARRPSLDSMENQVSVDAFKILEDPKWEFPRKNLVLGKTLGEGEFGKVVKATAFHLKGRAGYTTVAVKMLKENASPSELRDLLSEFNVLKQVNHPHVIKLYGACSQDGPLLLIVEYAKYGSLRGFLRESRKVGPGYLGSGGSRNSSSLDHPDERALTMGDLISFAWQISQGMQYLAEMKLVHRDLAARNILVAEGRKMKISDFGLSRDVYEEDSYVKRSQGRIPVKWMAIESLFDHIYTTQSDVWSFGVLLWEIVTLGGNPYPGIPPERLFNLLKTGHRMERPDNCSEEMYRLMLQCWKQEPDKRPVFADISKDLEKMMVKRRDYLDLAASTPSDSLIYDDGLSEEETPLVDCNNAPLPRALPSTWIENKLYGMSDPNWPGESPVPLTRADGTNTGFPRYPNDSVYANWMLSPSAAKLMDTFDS
Sequence of full length hGFRAL and full length hRET9 co-expressed on HEK293 cells (P07949 other isoform, or with tags, fused parts or gaps limits assumed): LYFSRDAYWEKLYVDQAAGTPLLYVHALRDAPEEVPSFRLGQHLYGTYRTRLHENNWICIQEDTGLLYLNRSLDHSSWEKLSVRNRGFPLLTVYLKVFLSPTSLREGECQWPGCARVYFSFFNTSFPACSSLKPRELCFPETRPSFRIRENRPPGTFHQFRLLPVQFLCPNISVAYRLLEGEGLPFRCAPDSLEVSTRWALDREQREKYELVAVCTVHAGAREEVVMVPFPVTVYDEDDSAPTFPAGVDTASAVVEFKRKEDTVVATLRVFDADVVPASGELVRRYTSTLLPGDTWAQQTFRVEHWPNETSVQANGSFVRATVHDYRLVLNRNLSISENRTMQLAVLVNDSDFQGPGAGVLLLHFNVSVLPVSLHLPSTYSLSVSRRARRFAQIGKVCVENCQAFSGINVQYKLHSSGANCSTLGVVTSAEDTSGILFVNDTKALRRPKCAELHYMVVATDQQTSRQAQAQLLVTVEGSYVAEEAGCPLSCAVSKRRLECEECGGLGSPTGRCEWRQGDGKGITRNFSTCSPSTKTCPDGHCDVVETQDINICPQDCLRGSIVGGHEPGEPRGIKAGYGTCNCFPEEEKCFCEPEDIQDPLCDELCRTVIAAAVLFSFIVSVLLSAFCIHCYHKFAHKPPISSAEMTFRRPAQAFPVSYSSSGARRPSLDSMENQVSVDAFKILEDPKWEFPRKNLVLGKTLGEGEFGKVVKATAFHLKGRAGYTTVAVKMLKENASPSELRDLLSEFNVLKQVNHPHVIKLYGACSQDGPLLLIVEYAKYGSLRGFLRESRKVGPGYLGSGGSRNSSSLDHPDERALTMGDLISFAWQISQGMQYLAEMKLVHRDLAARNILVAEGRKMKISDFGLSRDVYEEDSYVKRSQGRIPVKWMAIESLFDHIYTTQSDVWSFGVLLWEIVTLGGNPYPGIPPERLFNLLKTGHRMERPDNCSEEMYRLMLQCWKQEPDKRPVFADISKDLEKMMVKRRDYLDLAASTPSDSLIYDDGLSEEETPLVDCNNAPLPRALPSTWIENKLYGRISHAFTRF
T5 sequence (chain, as listed by the source limits assumed): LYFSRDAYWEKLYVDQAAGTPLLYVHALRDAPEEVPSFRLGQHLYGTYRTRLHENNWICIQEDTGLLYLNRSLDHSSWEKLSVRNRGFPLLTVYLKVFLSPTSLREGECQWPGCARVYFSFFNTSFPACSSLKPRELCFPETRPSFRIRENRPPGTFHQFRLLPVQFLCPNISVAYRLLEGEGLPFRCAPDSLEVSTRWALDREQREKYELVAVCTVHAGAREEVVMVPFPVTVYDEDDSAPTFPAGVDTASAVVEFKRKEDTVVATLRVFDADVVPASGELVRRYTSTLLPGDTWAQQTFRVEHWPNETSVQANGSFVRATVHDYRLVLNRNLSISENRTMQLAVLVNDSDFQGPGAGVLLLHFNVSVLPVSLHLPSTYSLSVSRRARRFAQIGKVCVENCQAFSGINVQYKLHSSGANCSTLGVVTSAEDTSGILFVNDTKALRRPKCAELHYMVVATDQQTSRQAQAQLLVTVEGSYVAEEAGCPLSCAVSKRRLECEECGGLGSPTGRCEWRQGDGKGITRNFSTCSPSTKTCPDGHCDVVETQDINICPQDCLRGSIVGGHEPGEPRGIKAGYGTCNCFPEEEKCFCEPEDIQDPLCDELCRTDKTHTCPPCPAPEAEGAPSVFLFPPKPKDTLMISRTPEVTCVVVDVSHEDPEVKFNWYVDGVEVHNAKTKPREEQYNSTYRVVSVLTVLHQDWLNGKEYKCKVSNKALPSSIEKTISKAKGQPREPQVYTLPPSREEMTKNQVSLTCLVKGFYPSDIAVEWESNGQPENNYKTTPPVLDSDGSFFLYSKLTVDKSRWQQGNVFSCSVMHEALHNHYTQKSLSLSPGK

binding result (wild type human MIC-1): binds
binding result (hPSPN): no binding
binding result (hGDNF): no binding
binding result (hNRTN): no binding
binding result (hARTN): no binding
B1: mGFRAL(ECR)-Fab-HPC4 (receptor)
chain: QTNDCAHLIQKCLIDANGCEQSWRSMEDTCLTPGDSCKINNSLHCNLSIQALVEKNFQFKECLCMDDLHCTVNKLFGKKCTNKTDNMEKDNKDKWNLTTTPFYHGFKQMQSCLEVTEACVGDVVCNAQLALYLKACSANGNLCDVKHCQAAIRFFYQNMPFNTAQMLAFCDCAQSDIPCQQSKETLHSKPCALNIVPPPTCLSVIHTCRNDELCRTHYRTFQTECWPHITGKCHEDETCISMLGKQDLTCSGSESCRAAFLGTFGTVLQVPCACRGVTQAEEHVCMIFQHMLHSKSCFNYPTPNVKDISSYEKKNSKEITLTGFNSFFNGGGGSGGGGSDVVMTQTPLSLPVSLGDQASISCRSSQSLLHSNGNTYLHWYLQKPGQSPKLLIYKVSNRFSGVPDRFSGSGSGTDFTLKISRVEAEDLGVYFCSQSTHVPWTFGGGTKLEIKRADAAPTVSIFPPSSEQLTSGGASVVCFLNNFYPKDINVKWKIDGSERQNGVLNSWTDQDSKDSTYSMSSTLTLTKDEYERHNSYTCEATHKTSTSPIVKSFNRNEC
heavy: EVQIQESGPSLVKPSQTLSLTCSVSGDSITSGYWNWIRKFPGHKIEYMGTISYSGDTYYNPSLKSRISITRDTSKNQYYLHLNSVTTEDTATYYCARYGSYVFDYWGQGTTLTVSSAKTTPPSVYPLAPGSAAQTNSMVTLGCLVKGYFPEPVTVTWNSGSLSSGVHTFPAVLQSDLYTLSSSVTVPSSTWPSETVTCNVAHPASSTKVDKKIVPRDCGGGGSEDQVDPRLIDGK
notes: Soluble fusion of the mouse GFRAL (isoform 1) extracellular region with an anti-TNP Fab; also called mGFRA(ECR)L-Fab-HPC4

Binder: B2
Response (RU) (hRET(ECR)-hIgG1.1_Fc [1]): 0.88 RU
Response (RU) (VISTA-Fc [2]): 0.226 RU
Response (RU) (VISTA-Fc [3]): -0.245 RU
Response (RU) (hRET(ECR)-hIgG1.1_Fc [4]): 0.467 RU
Response (RU) (VISTA-Fc [5]): 0.362 RU
Response (RU) (hRET(ECR)-hIgG1.1_Fc [6]): 0.527 RU
Response (RU) (VISTA-Fc [7]): -0.515 RU
Response (RU) (VISTA-Fc [8]): 0 RU
EC50 of ERK1/2 phosphorylation; hGFRAL and hRET51 co-transfected PC12 cells [9]: ~200 pM
Response (RU) (VISTA-Fc [10]): -0.0179 RU
Response (RU) (hRET(ECR)-hIgG1.1_Fc [11]): 0.484 RU
pERK1/2 (Evision Unit); HEK293 cells; wtMIC-1 0.001000 nM [12]: 1 Evision Unit
pERK1/2 (Evision Unit); HEK293 cells; wtMIC-1 0.030483 nM [12]: 1.03 Evision Unit
pERK1/2 (Evision Unit); HEK293 cells; wtMIC-1 0.091449 nM [12]: 1.01 Evision Unit
pERK1/2 (Evision Unit); HEK293 cells; wtMIC-1 0.274348 nM [12]: 1.05 Evision Unit
pERK1/2 (Evision Unit); HEK293 cells; wtMIC-1 0.823045 nM [12]: 1.09 Evision Unit
pERK1/2 (Evision Unit); HEK293 cells; wtMIC-1 2.469136 nM [12]: 1.07 Evision Unit
pERK1/2 (Evision Unit); HEK293 cells; wtMIC-1 7.407407 nM [12]: 1.14 Evision Unit
pERK1/2 (Evision Unit); HEK293 cells; wtMIC-1 22.222220 nM [12]: 1.11 Evision Unit
pERK1/2 (Evision Unit); HEK293 cells; wtMIC-1 66.666670 nM [12]: 1.16 Evision Unit
pERK1/2 (Evision Unit); HEK293 cells; wtMIC-1 0.001000 nM [13]: 1 Evision Unit
pERK1/2 (Evision Unit); HEK293 cells; wtMIC-1 0.030483 nM [13]: 1.02 Evision Unit
pERK1/2 (Evision Unit); HEK293 cells; wtMIC-1 0.091449 nM [13]: 0.969 Evision Unit
pERK1/2 (Evision Unit); HEK293 cells; wtMIC-1 0.274348 nM [13]: 1.13 Evision Unit
pERK1/2 (Evision Unit); HEK293 cells; wtMIC-1 0.823045 nM [13]: 1.4 Evision Unit
pERK1/2 (Evision Unit); HEK293 cells; wtMIC-1 2.469136 nM [13]: 1.69 Evision Unit
pERK1/2 (Evision Unit); HEK293 cells; wtMIC-1 7.407407 nM [13]: 1.7 Evision Unit
pERK1/2 (Evision Unit); HEK293 cells; wtMIC-1 22.222220 nM [13]: 1.73 Evision Unit
pERK1/2 (Evision Unit); HEK293 cells; wtMIC-1 66.666670 nM [13]: 1.74 Evision Unit
pERK1/2 (Evision Unit); HEK293 cells; wtMIC-1 0.001000 nM [14]: 1 Evision Unit
pERK1/2 (Evision Unit); HEK293 cells; wtMIC-1 0.030483 nM [14]: 1.07 Evision Unit
pERK1/2 (Evision Unit); HEK293 cells; wtMIC-1 0.091449 nM [14]: 0.988 Evision Unit
pERK1/2 (Evision Unit); HEK293 cells; wtMIC-1 0.274348 nM [14]: 1.07 Evision Unit
pERK1/2 (Evision Unit); HEK293 cells; wtMIC-1 0.823045 nM [14]: 1.17 Evision Unit
pERK1/2 (Evision Unit); HEK293 cells; wtMIC-1 2.469136 nM [14]: 1.24 Evision Unit
pERK1/2 (Evision Unit); HEK293 cells; wtMIC-1 7.407407 nM [14]: 1.3 Evision Unit
pERK1/2 (Evision Unit); HEK293 cells; wtMIC-1 22.222220 nM [14]: 1.26 Evision Unit
pERK1/2 (Evision Unit); HEK293 cells; wtMIC-1 66.666670 nM [14]: 1.32 Evision Unit
Response (RU) (hRET(ECR)-hIgG1.1_Fc [15]): 0.184 RU
Response (RU) (hRET(ECR)-hIgG1.1_Fc [16]): 0 RU
EC50 [17]: 1300 pM
